Source: PMC2756588

T1: Abp1, P15891
T1 sequence (P15891 535-592, looked up): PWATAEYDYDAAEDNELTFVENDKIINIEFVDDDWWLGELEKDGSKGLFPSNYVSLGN

T2: Bbc1, P47068
T2 sequence (P47068 1-78, looked up): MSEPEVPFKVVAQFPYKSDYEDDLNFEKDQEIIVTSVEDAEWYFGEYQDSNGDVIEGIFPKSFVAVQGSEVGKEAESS

T3: Boi1, P38041
T3 sequence (P38041 1-86, looked up): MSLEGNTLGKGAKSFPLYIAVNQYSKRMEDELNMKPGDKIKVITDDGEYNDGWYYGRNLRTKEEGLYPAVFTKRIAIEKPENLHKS

T4: Boi2, P39969
T4 sequence (P39969 32-116, looked up): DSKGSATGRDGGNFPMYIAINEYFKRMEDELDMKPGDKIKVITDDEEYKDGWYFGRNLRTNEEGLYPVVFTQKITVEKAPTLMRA

T5: Bud14, P27637
T5 sequence (P27637 247-328, looked up): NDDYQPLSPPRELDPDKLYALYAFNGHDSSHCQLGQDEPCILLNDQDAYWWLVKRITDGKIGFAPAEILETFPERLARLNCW

T6: Bzz1-1, P38822
T6 sequence (P38822 478-572, looked up): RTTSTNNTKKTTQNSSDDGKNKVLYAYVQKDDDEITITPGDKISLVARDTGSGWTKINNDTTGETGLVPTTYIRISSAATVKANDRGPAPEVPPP

T7: Bzz1-2, P38822
T7 sequence (P38822 568-633, looked up): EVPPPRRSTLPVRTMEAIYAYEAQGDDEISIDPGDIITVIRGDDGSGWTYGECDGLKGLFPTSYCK

T8: Cdc25, P04821
T8 sequence (P04821 50-136, looked up): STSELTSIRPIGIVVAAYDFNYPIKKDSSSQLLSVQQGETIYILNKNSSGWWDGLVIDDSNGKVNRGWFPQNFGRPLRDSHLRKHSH

T9: Cyk3, Q07533
T9 sequence (Q07533 1-83, looked up): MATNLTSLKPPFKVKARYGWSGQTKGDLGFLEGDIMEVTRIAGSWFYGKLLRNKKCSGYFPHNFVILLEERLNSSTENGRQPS

T10: Fus1, P11710
T10 sequence (P11710 432-512, looked up): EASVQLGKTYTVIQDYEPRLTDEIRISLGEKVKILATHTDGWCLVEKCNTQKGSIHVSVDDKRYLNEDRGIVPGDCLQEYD

T11: Hof1, Q05080
T11 sequence (Q05080 590-669, looked up): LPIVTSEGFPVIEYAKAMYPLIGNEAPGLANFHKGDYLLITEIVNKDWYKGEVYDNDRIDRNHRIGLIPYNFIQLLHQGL

T12: Hse1, P38753
T12 sequence (P38753 208-285, looked up): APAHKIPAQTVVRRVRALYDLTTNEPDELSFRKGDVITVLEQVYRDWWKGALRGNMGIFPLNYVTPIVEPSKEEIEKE

T13: Lsb1, P53281
T13 sequence (P53281 45-122, looked up): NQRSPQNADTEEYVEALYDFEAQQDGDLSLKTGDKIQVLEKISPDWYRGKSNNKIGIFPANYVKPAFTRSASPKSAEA

T14: Lsb3, P43603
T14 sequence (P43603 385-451, looked up): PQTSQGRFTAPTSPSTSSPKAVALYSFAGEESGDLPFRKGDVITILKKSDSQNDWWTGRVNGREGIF

T15: Lsb4, P32793
T15 sequence (P32793 402-468, looked up): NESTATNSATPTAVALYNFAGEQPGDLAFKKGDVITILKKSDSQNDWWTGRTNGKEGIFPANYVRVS

T16: Myo5, Q04439
T16 sequence (Q04439 1072-1160, looked up): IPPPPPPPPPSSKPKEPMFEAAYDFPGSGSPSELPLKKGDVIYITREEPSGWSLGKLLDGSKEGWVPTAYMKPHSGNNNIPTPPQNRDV

T17: Nbp2, Q12163
T17 sequence (Q12163 103-180, looked up): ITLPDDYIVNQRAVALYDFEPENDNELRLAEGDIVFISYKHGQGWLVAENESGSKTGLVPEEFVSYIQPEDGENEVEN

T18: Pex13, P80667
T18 sequence (P80667 295-386, looked up): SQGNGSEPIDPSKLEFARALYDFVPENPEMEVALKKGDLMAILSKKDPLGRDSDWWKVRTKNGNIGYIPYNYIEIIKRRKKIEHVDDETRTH

T19: Pin3, Q06449
T19 sequence (Q06449 53-122, looked up): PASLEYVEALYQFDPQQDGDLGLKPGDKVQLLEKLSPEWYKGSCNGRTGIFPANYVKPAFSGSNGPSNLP

T20: Sla1-2, P32790
T20 sequence (P32790 60-140, looked up): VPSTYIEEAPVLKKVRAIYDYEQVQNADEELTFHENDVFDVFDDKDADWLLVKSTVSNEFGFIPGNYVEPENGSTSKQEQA

T21: Sla1-3, P32790
T21 sequence (P32790 344-424, looked up): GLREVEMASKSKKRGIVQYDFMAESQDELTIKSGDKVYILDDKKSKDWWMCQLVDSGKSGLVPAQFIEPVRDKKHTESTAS


target: T1, Abp1, P15891; test: SPOT array; settings: median of control spots 935

SPOT intensity | Binder
7 | NVLRKILEIPLHSFS
0 | ATNVPVAPPPPPASL
0 | RNNRPVPPPPPMRTT

target: T2, Bbc1, P47068; test: SPOT array; settings: median of control spots 796

SPOT intensity | Binder
62 | NVLRKILEIPLHSFS
0 | ATNVPVAPPPPPASL
0 | RNNRPVPPPPPMRTT

target: Bem1-1, P29366; test: SPOT array; settings: median of control spots 4282
Sequence (P29366 55-141): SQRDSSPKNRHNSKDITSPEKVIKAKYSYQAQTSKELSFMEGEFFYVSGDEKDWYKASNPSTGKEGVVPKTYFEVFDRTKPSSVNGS

SPOT intensity | Binder
2 | NVLRKILEIPLHSFS
4 | ATNVPVAPPPPPASL
5 | RNNRPVPPPPPMRTT

target: Bem1-2, P29366; test: SPOT array; settings: median of control spots 4347
Sequence (P29366 139-227): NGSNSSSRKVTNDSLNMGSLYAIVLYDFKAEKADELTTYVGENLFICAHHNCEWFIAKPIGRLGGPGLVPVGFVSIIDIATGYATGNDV

SPOT intensity | Binder
0 | NVLRKILEIPLHSFS
0 | ATNVPVAPPPPPASL
0 | RNNRPVPPPPPMRTT

target: T3, Boi1, P38041; test: SPOT array; settings: median of control spots 1162

SPOT intensity | Binder
6 | NVLRKILEIPLHSFS
0 | ATNVPVAPPPPPASL
0 | RNNRPVPPPPPMRTT

target: T4, Boi2, P39969; test: SPOT array; settings: median of control spots 1161

SPOT intensity | Binder
0 | NVLRKILEIPLHSFS
0 | ATNVPVAPPPPPASL
1 | RNNRPVPPPPPMRTT

target: T5, Bud14, P27637; test: SPOT array; settings: median of control spots 956

SPOT intensity | Binder
31 | NVLRKILEIPLHSFS
0 | ATNVPVAPPPPPASL
0 | RNNRPVPPPPPMRTT

target: T6, Bzz1-1, P38822; test: SPOT array; settings: median of control spots 4446

SPOT intensity | Binder
0 | NVLRKILEIPLHSFS
1 | ATNVPVAPPPPPASL
6 | RNNRPVPPPPPMRTT

target: T7, Bzz1-2, P38822; test: SPOT array; settings: median of control spots 4538

SPOT intensity | Binder
5 | NVLRKILEIPLHSFS
3 | ATNVPVAPPPPPASL
233 | RNNRPVPPPPPMRTT

target: T8, Cdc25, P04821; test: SPOT array; settings: median of control spots 969

SPOT intensity | Binder
105 | NVLRKILEIPLHSFS
0 | ATNVPVAPPPPPASL
0 | RNNRPVPPPPPMRTT

target: T9, Cyk3, Q07533; test: SPOT array; settings: median of control spots 1451

SPOT intensity | Binder
1 | NVLRKILEIPLHSFS
0 | ATNVPVAPPPPPASL
2 | RNNRPVPPPPPMRTT

target: T10, Fus1, P11710; test: SPOT array; settings: median of control spots 1200

SPOT intensity | Binder
35 | NVLRKILEIPLHSFS
0 | ATNVPVAPPPPPASL
0 | RNNRPVPPPPPMRTT

target: GST; test: SPOT array; settings: median of control spots 978

SPOT intensity | Binder
0 | NVLRKILEIPLHSFS
0 | ATNVPVAPPPPPASL
0 | RNNRPVPPPPPMRTT

target: T11, Hof1, Q05080; test: SPOT array; settings: median of control spots 4086

SPOT intensity | Binder
0 | NVLRKILEIPLHSFS
0 | ATNVPVAPPPPPASL
0 | RNNRPVPPPPPMRTT

target: T12, Hse1, P38753; test: SPOT array; settings: median of control spots 1727

SPOT intensity | Binder
5 | NVLRKILEIPLHSFS
0 | ATNVPVAPPPPPASL
7 | RNNRPVPPPPPMRTT

target: T13, Lsb1, P53281; test: SPOT array; settings: median of control spots 388

SPOT intensity | Binder
0 | NVLRKILEIPLHSFS
0 | ATNVPVAPPPPPASL
0 | RNNRPVPPPPPMRTT

target: T14, Lsb3, P43603; test: SPOT array; settings: median of control spots 406

SPOT intensity | Binder
0 | NVLRKILEIPLHSFS
0 | ATNVPVAPPPPPASL
0 | RNNRPVPPPPPMRTT

target: T15, Lsb4, P32793; test: SPOT array; settings: median of control spots 397

SPOT intensity | Binder
0 | NVLRKILEIPLHSFS
0 | ATNVPVAPPPPPASL
0 | RNNRPVPPPPPMRTT

target: Myo3, P36006; test: SPOT array; settings: median of control spots 468

SPOT intensity | Binder
0 | NVLRKILEIPLHSFS
0 | ATNVPVAPPPPPASL
0 | RNNRPVPPPPPMRTT

target: T16, Myo5, Q04439; test: SPOT array; settings: median of control spots 471

SPOT intensity | Binder
0 | NVLRKILEIPLHSFS
0 | ATNVPVAPPPPPASL
1 | RNNRPVPPPPPMRTT

target: T17, Nbp2, Q12163; test: SPOT array; settings: median of control spots 357

SPOT intensity | Binder
0 | NVLRKILEIPLHSFS
0 | ATNVPVAPPPPPASL
0 | RNNRPVPPPPPMRTT

target: T18, Pex13, P80667; test: SPOT array; settings: median of control spots 1341

SPOT intensity | Binder
0 | NVLRKILEIPLHSFS
0 | ATNVPVAPPPPPASL
201 | RNNRPVPPPPPMRTT

target: T19, Pin3, Q06449; test: SPOT array; settings: median of control spots 2171

SPOT intensity | Binder
0 | NVLRKILEIPLHSFS
0 | ATNVPVAPPPPPASL
31 | RNNRPVPPPPPMRTT

target: Rvs167, P39743; test: SPOT array; settings: median of control spots 2707
Sequence (P39743 419-482): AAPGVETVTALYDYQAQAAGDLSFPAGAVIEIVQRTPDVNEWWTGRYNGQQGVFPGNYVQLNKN

SPOT intensity | Binder
0 | NVLRKILEIPLHSFS
0 | ATNVPVAPPPPPASL
1870 | RNNRPVPPPPPMRTT

target: Sho1, P40073; test: SPOT array; settings: median of control spots 1148
Sequence (P40073 287-367): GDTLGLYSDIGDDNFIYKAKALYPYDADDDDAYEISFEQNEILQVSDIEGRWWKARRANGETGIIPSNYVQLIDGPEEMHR

SPOT intensity | Binder
6 | NVLRKILEIPLHSFS
0 | ATNVPVAPPPPPASL
0 | RNNRPVPPPPPMRTT

target: T20, Sla1-2, P32790; test: SPOT array; settings: median of control spots 712

SPOT intensity | Binder
0 | NVLRKILEIPLHSFS
0 | ATNVPVAPPPPPASL
1 | RNNRPVPPPPPMRTT

target: T21, Sla1-3, P32790; test: SPOT array; settings: median of control spots 5475

SPOT intensity | Binder
0 | NVLRKILEIPLHSFS
0 | ATNVPVAPPPPPASL
0 | RNNRPVPPPPPMRTT
